# Data from IntAct's records for PubMed 25350732.
# B1: Probable peptidoglycan glycosyltransferase FtsW (Caulobacter crescentus), B8H092 (parent)
# chain: MASNATHAFARTDRTALGLWWWTTDRWLLGATALLVTLGMLLSFASSPAAAQRIGIDDQFHFALRMCFFATASSVLMLITSMLSPRDIRRAAFFIYLGAIAVMIALPFIGHNAKGATRWLQFAGFTLQPSEFMKPALIVLVSWMFAEGQKGEGVPGVSIAFLLYFIAVALLLIQPDVGQTVLITIAFGAAFWMAGVPISWIMGLGGVALAGLGSTYFLFDHVHARVQKFLSPDQADTHQITRAAEAIRAGGLFGRGPGEGVMKRHVPDLHTDFIYSVAAEEYGLIFSWSLIGLFAFVVVRGLYKAMKLNDPFEQVAAAGLFVLVGQQALINIAVNLNMIPTKGMTLPFISYGGSSMLAMGLTLGMALALLRKRPGAYGASGEFGFGRADA
# partner: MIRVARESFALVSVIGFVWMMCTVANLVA
# Variants of: B1
# Conditions: with sida_cauvn sidA
row,Variant,effect of a mutation on the interaction
1,A31K,disrupting interaction strength
